Measured values published in patent publication US20200199213A1 (Eli Lilly, published 2020).
Where two headings read alike, the source gives them in different places.

T1: cynomolgus ANGPTL3/8 complex (cynomolgus, UniProt A0A2K5UDC5 17-460; A0A2K5WWS3 22-198)
T1 construct: also called cyno ANGPTL3/8
T1 sequence 1: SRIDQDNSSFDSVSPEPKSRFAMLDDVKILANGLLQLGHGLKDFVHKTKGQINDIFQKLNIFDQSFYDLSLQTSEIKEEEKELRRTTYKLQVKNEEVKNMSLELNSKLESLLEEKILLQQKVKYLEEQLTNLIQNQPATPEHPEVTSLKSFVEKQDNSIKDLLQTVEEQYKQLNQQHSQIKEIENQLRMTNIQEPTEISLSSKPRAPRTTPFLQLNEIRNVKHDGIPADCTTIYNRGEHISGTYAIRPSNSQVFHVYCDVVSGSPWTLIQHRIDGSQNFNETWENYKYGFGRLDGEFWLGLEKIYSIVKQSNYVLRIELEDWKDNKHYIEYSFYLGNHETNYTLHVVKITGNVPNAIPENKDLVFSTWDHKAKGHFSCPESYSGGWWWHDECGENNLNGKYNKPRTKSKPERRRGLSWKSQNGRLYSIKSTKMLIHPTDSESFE
T1 sequence 2: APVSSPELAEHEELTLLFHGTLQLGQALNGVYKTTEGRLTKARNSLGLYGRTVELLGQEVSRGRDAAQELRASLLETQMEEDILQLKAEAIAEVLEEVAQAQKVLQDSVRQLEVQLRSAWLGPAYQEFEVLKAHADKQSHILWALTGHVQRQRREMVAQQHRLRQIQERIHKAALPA

T2: mouse ANGPTL3/8 complex (mouse, UniProt Q9R182 17-455; Q8R1L8 16-198, limits assumed)
T2 sequence (looked up) 1: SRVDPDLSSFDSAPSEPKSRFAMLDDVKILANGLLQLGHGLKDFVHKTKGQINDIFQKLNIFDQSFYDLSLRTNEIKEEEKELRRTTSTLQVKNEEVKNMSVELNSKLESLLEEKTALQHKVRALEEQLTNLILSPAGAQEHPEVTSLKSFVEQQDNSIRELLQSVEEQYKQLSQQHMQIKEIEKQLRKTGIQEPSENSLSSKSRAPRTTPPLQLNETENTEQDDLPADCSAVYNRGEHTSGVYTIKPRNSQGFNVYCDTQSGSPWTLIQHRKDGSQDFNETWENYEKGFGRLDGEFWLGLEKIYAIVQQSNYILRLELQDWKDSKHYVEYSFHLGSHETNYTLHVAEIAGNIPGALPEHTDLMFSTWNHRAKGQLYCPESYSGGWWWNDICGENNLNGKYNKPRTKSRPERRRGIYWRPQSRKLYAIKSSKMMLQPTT
T2 sequence (looked up) 2: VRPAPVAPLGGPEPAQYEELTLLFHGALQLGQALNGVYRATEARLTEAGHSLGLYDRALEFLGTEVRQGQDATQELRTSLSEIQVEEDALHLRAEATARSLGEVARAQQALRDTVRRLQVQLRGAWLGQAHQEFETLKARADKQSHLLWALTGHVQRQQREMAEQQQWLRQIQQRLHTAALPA

T3: human ANGPTL3/8 complex (human, UniProt Q9Y5C1 17-460; Q6UXH0 22-198, limits assumed)
T3 construct: also called hANGPTL3/8 complex; ANGTPL3/8 complex
T3 sequence 1: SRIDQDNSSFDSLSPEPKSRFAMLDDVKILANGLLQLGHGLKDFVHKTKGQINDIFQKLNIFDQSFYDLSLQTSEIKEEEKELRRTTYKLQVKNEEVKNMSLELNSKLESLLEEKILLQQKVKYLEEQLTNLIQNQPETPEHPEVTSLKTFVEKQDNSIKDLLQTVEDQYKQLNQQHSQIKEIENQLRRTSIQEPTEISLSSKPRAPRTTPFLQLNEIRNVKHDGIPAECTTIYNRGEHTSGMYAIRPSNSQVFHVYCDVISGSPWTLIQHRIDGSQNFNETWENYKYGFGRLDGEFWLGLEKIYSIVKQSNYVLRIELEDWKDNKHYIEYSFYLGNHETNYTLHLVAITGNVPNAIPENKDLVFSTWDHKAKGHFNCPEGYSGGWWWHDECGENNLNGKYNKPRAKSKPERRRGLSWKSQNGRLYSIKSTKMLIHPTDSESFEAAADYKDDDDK
T3 sequence 2: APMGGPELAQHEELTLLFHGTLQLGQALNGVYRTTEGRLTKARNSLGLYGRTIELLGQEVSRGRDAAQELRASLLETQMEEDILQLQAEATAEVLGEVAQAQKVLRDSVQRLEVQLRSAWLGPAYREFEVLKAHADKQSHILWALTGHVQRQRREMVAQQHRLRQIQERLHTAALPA


Tests used:
Assay in all cases: SPR, Biacore T200; Ab captured on Human Fab Binder, complex injected; pH 7.4, 25 C
[1] = molecular target: T1, cynomolgus ANGPTL3/8 complex
mouse ANGPTL3/8 complex [2] = molecular target: T2, mouse ANGPTL3/8 complex
human ANGPTL3/8 complex [3] = molecular target: T3, human ANGPTL3/8 complex
[4] = molecular target: T1, cynomolgus ANGPTL3/8 complex; remark: listed apart in the source
mouse ANGPTL3/8 complex [5] = molecular target: T2, mouse ANGPTL3/8 complex; remark: listed apart in the source
human ANGPTL3/8 complex [6] = molecular target: T3, human ANGPTL3/8 complex; remark: listed apart in the source

Kd [1] [nM] | koff [1] [s⁻¹] | kon [1] [M⁻¹ s⁻¹] | Kd (mouse ANGPTL3/8 complex [2]) [nM] | koff (mouse ANGPTL3/8 complex [2]) [s⁻¹] | kon (mouse ANGPTL3/8 complex [2]) [M⁻¹ s⁻¹] | Kd (human ANGPTL3/8 complex [3]) [nM] | koff (human ANGPTL3/8 complex [3]) [s⁻¹] | kon (human ANGPTL3/8 complex [3]) [M⁻¹ s⁻¹] | Kd [4] [nM] | koff [4] [s⁻¹] | kon [4] [M⁻¹ s⁻¹] | Kd (mouse ANGPTL3/8 complex [5]) [nM] | koff (mouse ANGPTL3/8 complex [5]) [s⁻¹] | kon (mouse ANGPTL3/8 complex [5]) [M⁻¹ s⁻¹] | Kd (human ANGPTL3/8 complex [6]) [nM] | koff (human ANGPTL3/8 complex [6]) [s⁻¹] | kon (human ANGPTL3/8 complex [6]) [M⁻¹ s⁻¹] | Binder
0.213 | 9.91e-05 | 491000 | 0.366 | 0.000172 | 475000 | 0.135 | 6.31e-05 | 477000 | – | – | – | – | – | – | – | – | – | anti-ANGPTL3/8 complex Ab having a LC of SEQ ID NO:5 and a HC of SEQ ID NO:6 (antibody, human IgG4 S228P, kappa, F234A L235A, V domains shown, In the ELISA assays tested as IgG from CHO supernatants; also called the Ab) VH: QVTLKESGPTLVKPTQTLTLTCTFSGFSLSISGVGVGWIRQPPGKALEWLALIYRNDDKRYSPSLKSRLTITKDTSKNQVVLTLTNMDPVDTATYYCARTYSSGWYGNWFDPWGQGTLVTVSS VL: DIVMTQTPLSLPVTPGEPASISCRSSQSLLDSDDGNTYLDWYLQKPGQSPQLLIYMLSYRASGVPDRFSGSGSGTDFTLKISRVEAEDVGIYYCMQRIEFPLTFGGGTKVEIKR
– | – | – | – | – | – | – | – | – | 0.365 | 0.000168 | 462000 | 0.218 | 0.000108 | 496000 | 0.116 | 5.75e-05 | 497000 | Ab with LC variant having a D31S mutation (SEQ ID NO:21) and a HC of SEQ ID NO:6 (antibody, human IgG4 S228P, kappa, F234A L235A, V domains shown, also called D31S Variant Ab; D31S Ab) VH: QVTLKESGPTLVKPTQTLTLTCTFSGFSLSISGVGVGWIRQPPGKALEWLALIYRNDDKRYSPSLKSRLTITKDTSKNQVVLTLTNMDPVDTATYYCARTYSSGWYGNWFDPWGQGTLVTVSS VL: DIVMTQTPLSLPVTPGEPASISCRSSQSLLSSDDGNTYLDWYLQKPGQSPQLLIYMLSYRASGVPDRFSGSGSGTDFTLKISRVEAEDVGIYYCMQRIEFPLTFGGGTKVEIKR
